Data from patent US20220389113A1, “BINDING PROTEINS TO CUB DOMAIN-CONTAINING PROTEIN (CDCP1)” (COMMONWEALTH SCIENTIFIC AND INDUSTRIAL RESEARCH ORGANISATION, priority 2019, published 2022).

Tests used:
TKCC02 cells = experiment: Survival assay with cytotoxin-conjugated antibodies, TKCC02; assay type: cell-based, human; conditions: TKCC02, 1 μg/ml, 12 h treatment then 72 h growth
Procedure: (§1) The relative number of viable cells was then measured by adding the CellTiter AQueous One Solution Reagent to each well and measuring absorbance at 490 nm as described above. […] Cells were imaged by wide-field fluorescence microscopy and the total area of confluence for each cell type was quantified by image analysis using Image J software.

TKCC05 cells = experiment: Survival assay with cytotoxin-conjugated antibodies, TKCC05; assay type: cell-based, human; conditions: TKCC05, 1 μg/ml, 12 h treatment then 72 h growth
Procedure: as §1

[1] = system: subcutaneous TKCC05 cells xenografts; experiment: TKCC05 subcutaneous xenograft, MMAE-conjugated antibodies; assay type: in vivo, mouse; conditions: 5 mg/kg i.v. on day 27 and 41, in comparison with the other treatments
Procedure: Mouse experiments were approved by the University of Queensland Animal Ethics Committee. PDAC cells (2.5×10^6) were injected subcutaneously into the flanks of NOD.Cg-Prkdcscid Il2rgtm1Wjl/SzJ (NSG) mice (6-8 weeks; Jackson Laboratory, Bar Harbor, Me.). For assays assessing the impact of antibody 10D7 on xenograft growth, two weeks after PDAC cell inoculations, mice (n=6/group) were randomized and treated i.v. every four days with PBS, 10D7 (5 mg/kg) or IgG (5 mg/kg) until the end of the assay. For assays assessing whether 10D7 improves the efficacy of gemcitabine chemotherapy, four weeks after PDAC cell inoculations, mice were randomized and treated i.v. every four days with PBS (n=12), 10D7 (n=12, 5 mg/kg) or IgG (n=12, 5 mg/kg). Half of the mice in each of the three groups also received gemcitabine i.p. treatments (125 mg/kg/week). At the end of the assay tumours were harvested, weighed and processed for assessment of histology and CDCP1 expression by immunohistochemistry or western blot analysis. […] Tumour burden was monitored by calliper measurement and tumour volume calculated as previously described (Feldman J P, Goldwasser R, Mark S, Schwartz J (2009) Journal of Applied Quantitative Methods 4(4):455-462). […]
Finally, the inventors evaluated whether the PDAC targeting ability of antibody 10D7 can be harnessed to effectively deliver the cytotoxin MMAE to PDAC in vivo. […]

OVMZ6-CDCP1 cells = experiment: Colony formation assay, OVMZ6-CDCP1 cells; assay type: cell-based, human
Procedure: (§2) MMAE-conjugated 10D7 and IgG1K were prepared as described (Nielsen C F, et al., (2017) Oncotarget. 8(27):44605-24.53) and drug-antibody ratio (DAR) determined by reverse phase LC/MS as reported (Basa L. et al., (2013) Methods Mol Biol. 1045:285-93.) on an ABSCIEX Triple TOF spectrometer (AB SCIEX Framingham, Mass.) coupled to a Shimadzu Nexera 1D UHPLC system (Shimadzu, Rydalmere, Australia). ADC peak identification was performed as reported with DAR determined by peak area integration (Hamblett K J, et al., (2004) Clin Cancer Res. 10(20):7063-70; Yao X, et al., (2015) Breast Cancer Res Treat. 153(1):123-33). Colony-formation assays were performed as described (Crowley L C, et al., (2016) Cold Spring Harb Protoc. 2016(8):pdb.prot087171) on cells (100,000/ml) treated with the indicated concentrations of 10D7, 10D7-MMAE, IgG or IgG-MMAE overnight before being lifted and replated in 24-well plates (200 cells/well). After a defined growth period media was removed and cells gently PBS washed before staining with 0.1% crystal violet (Sigma-Aldrich) in 2% ethanol. After 20 minutes and stained cells were scanned (700 nm) on a LiCOR System (Odyssey V3.0 software) with images analyzed using the ColonyArea ImageJ plugin to quantify colony area and intensity (Guzmán C, et al., (2014) PLoS One. 9(3):e92444.). […]

HEY cells = experiment: Colony formation assay, HEY cells; assay type: cell-based, human
Procedure: as §2

TKCC2.1 cells xenografts = experiment: Pancreatic cancer subcutaneous xenograft, MMAE-labelled 10D7 and chimeric 10D7; conditions: 125 μg iv, treated twice
Procedure: Pancreatic cancer cells (TKCC2.1 cells, 1×10^6 cells) were grafted subcutaneously in NSG mice. After 4 weeks, mice were randomized into 5 groups (10 mice per group) and treated with: PBS (iv, 125 μl fortnightly), IgG-MMAE (iv, 125 μg diluted in 125 μl PBS), 10D7-MMAE (iv, 125 μg diluted in 125 μl PBS), Chim hu/mu-10D7-MMAE (iv, 125 μg diluted in 125 μl PBS) or Gemcitabine (ip, 100 mg/kg in PBS weekly).
Mice were euthanized when one ethical end point was reached (either tumour size or excessive signs of distress).

B1: 10D7-MMAE (conjugate)
VH: EVQLQQFGAELVKPGASVKISCKASGYSFSDFNIEWLKQSHGKSLEWIGDINPNYDSTNYNQKFKGRATLTVDKSSSTAYMEVRSLTSEDTAVYYCARLGYGYAMDYWGQGTSVTVSS
VL: NIVMTQSPQSMSMSVGERVTLSCKASENVGAYVSWFQQKPDQSPKLLILAASNRYTGVPARFIGSGSATDFTLTISSVQAEDLADYHCGQSYTYPYTFGGGTKLEIKRADAAPTVS
With B1 as the molecule, how does the survival of cells (TKCC02 cells) read?
The survival of cells was “about 25%”.

What about the survival of cells (TKCC05 cells) of the same molecule?
The survival of cells was “about 10%”.

What about the “survival of xenografted mice” value [1] of the same molecule?
Its value is “significantly extended survival”.

What about the tumour growth [1] of the same molecule?
Its tumour growth is “markedly inhibited tumour growth”.

What about the “half maximum dose required to block colony formation” value (OVMZ6-CDCP1 cells) of the same molecule?
Its value is ~0.07 µg/mL.

And the “half maximum dose required to block colony formation” value (HEY cells)?
Its value is “approximately 0.2 μg/ml”.

What about the “reduction of pancreatic tumour volume” value (TKCC2.1 cells xenografts) of the same molecule?
Its value is “superior to gemcitabine”.

What about the survival of mice (TKCC2.1 cells xenografts) of the same molecule?
Its survival of mice is “prolonged”.
